Common to all, as to settings: GMSA: K-glu100 buffer (40 mM HEPES pH 8.0, 10 mM MgCl2, 100 mM K glutamate, 4 mM DTT, 500 ug/ml BSA), 15 min at 37 C, 1 nM DNA, 18-150 nM RNA polymerase …
Series [1] concerns the target T1, Esigma70 RNA polymerase holoenzyme (reconstituted) (UniProt P00579+P0A7Z4+P0A8V2+P0A8T7+P0A800). In words: KMnO4 footprinting.
In series [2] the target is T2, EsigmaS RNA polymerase holoenzyme (reconstituted) (UniProt P13445+P0A7Z4+P0A8V2+P0A8T7+P0A800). Description: KMnO4 footprinting.
For series [3], the target named is T1, Esigma70 RNA polymerase holoenzyme (reconstituted). In words: EMSA.
Series [4] addresses T2, EsigmaS RNA polymerase holoenzyme (reconstituted). Description: EMSA.

On to “TATTCAGTCGCTGAAAAGCCGCTACGGCGAAAGTGAAGAGATCCTGTCGCTGCTTAATCTTTATCATAATCTGCTGCGGGAATGGTCGGAGATCTGATGCTTGAACTGCCCGAGTTCGTCCCTGGATTAGCTACACTTAACTGTACAAGTATTGATATGGGGAGGTCGATATGGCATCCGGTTGGGCTAACGATGACGCCGTCAACGAACAGATCAACAGTACAATT (double strand) [ybiI promoter fragment]”, for which the binding entry in series [1] is listed as “binds more weakly”; in series [2], “binds”; in series [3] it was “binds more weakly”; in series [4], “binds”.
As for “GATGGCGATAACTTCACTGGTGCGAAATGCGACCGAAGCAACCGCGCCATTACCGTCAATAGTAATCATATGACACCCTTACATTGCGCAAATGAGGGGCGCACGAAATTGCTGCGCGCCCAGTAGTAATCTTTCAATTTTAGCAAATGGCTTTCTTCTGCATTTTCGCTTTTGTGTCCCCCACATCAGCGTAATGAATGTTTTGATCAAACAGAGGGCAAAAAAATAGCCATAAAAAAGTAAAAATGCG (double strand) [ydbK promoter fragment]”, the binding entry in series [1], in series [2] and in series [4] was “binds” throughout.

For the origin of these results see article PMC4447067.
